This passage reports response results from PMC7736794.

To fix the notation:
B1: Flag-USP36 wild type [not stated] / Myc-PrimPol WT [not stated] (parent)
chain 1: MPIVDKLKEALKPGRKDSADDGELGKLLASSAKKVLLQKIEFEPASKSFSYQLEALKSKYVLLNPKTEGASRHKSGDDPPARRQGSEHTYESCGDGVPAPQKVLFPTERLSLRWERVFRVGAGLHNLGNTCFLNATIQCLTYTPPLANYLLSKEHARSCHQGSFCMLCVMQNHIVQAFANSGNAIKPVSFIRDLKKIARHFRFGNQEDAHEFLRYTIDAMQKACLNGCAKLDRQTQATTLVHQIFGGYLRSRVKCSVCKSVSDTYDPYLDVALEIRQAANIVRALELFVKADVLSGENAYMCAKCKKKVPASKRFTIHRTSNVLTLSLKRFANFSGGKITKDVGYPEFLNIRPYMSQNNGDPVMYGLYAVLVHSGYSCHAGHYYCYVKASNGQWYQMNDSLVHSSNVKVVLNQQAYVLFYLRIPGSKKSPEGLISRTGSSSLPGRPSVIPDHSKKNIGNGIISSPLTGKRQDSGTMKKPHTTEEIGVPISRNGSTLGLKSQNGCIPPKLPSGSPSPKLSQTPTHMPTILDDPGKKVKKPAPPQHFSPRTAQGLPGTSNSNSSRSGSQRQGSWDSRDVVLSTSPKLLATATANGHGLKGNDESAGLDRRGSSSSSPEHSASSDSTKAPQTPRSGAAHLCDSQETNCSTAGHSKTPPSGADSKTVKLKSPVLSNTTTEPASTMSPPPAKKLALSAKKASTLWRATGNDLRPPPPSPSSDLTHPMKTSHPVVASTWPVHRARAVSPAPQSSSRLQPPFSPHPTLLSSTPKPPGTSEPRSCSSISTALPQVNEDLVSLPHQLPEASEPPQSPSEKRKKTFVGEPQRLGSETRLPQHIREATAAPHGKRKRKKKKRPEDTAASALQEGQTQRQPGSPMYRREGQAQLPAVRRQEDGTQPQVNGQQVGCVTDGHHASSRKRRRKGAEGLGEEGGLHQDPLRHSCSPMGDGDPEAMEESPRKKKKKKRKQETQRAVEEDGHLKCPRSAKPQDAVVPESSSCAPSANGWCPGDRMGLSQAPPVSWNGERESDVVQELLKYSSDKAYGRKVLTWDGKMSAVSQDAIEDSRQARTETVVDDWDEEFDRGKEKKIKKFKREKRRNFNAFQKLQTRRNFWSVTHPAKAASLSYRR
chain 2: MNRKWEAKLKQIEERASHYERKPLSSVYRPRLSKPEEPPSIWRLFHRQAQAFNFVKSCKEDVHVFALECKVGDGQRIYLVTTYAEFWFYYKSRKNLLHCYEVIPENAVCKLYFDLEFNKPANPGADGKKMVALLIEYVCKALQELYGVNCSAEDVLNLDSSTDEKFSRHLIFQLHDVAFKDNIHVGNFLRKILQPALDLLGSEDDDSAPETTGHGFPHFSEAPARQGFSFNKMFTEKATEESWTSNSKKLERLGSAEQSSPDLSFLVVKNNMGEKHLFVDLGVYTRNRNFRLYKSSKIGKRVALEVTEDNKFFPIQSKDVSDEYQYFLSSLVSNVRFSDTLRILTCEPSQNKQKGVGYFNSIGTSVETIEGFQCSPYPEVDHFVLSLVNKDGIKGGIRRWNYFFPEELLVYDICKYRWCENIGRAHKSNNIMILVDLKNEVWYQKCHDPVCKAENFKSDCFPLPAEVCLLFLFKEEEEFTTDEADETRSNETQNPHKPSPSRLSTGASADAVWDNGIDDAYFLEATEDAELAEAAENSLLSYNSEVDEIPDELIIEVLQE

In one assay the parent is B1. The experiment in a line: co-immunoprecipitation (anti-Flag agarose beads), immunoblot band quantification. To be noted: with Myc-PrimPol WT; USP36 stably knocked-down HEK293T cells; HU (10 mM) for 8 h; parent: 1.6; read off a plot; scale: relative band intensity. A general note: In western blotting, separated proteins are transferred to a membrane and probed.
For the variant chain 1 K329R K338R, the response is 1.6.

Still in this assay, the particulars now being: with Myc-PrimPol WT; USP36 stably knocked-down HEK293T cells; untreated (Ctrl); parent: 1; read off a plot; scale: relative band intensity.
As to chain 1 K329R K338R, the response amounted to 1.6.
